Laboratory results from patent publication US20210292393A1 (published 2021).
Numbering of substitutions follows the chain as printed.

Legend:
[1] = target: full-length trimeric SARS-CoV spike protein (SARS-CoV, UniProt P59594 14-1190)
[2] = target: SARS-CoV spike protein (full-length trimeric, on beads) (SARS-CoV, UniProt P59594 14-1190)

B1: antibody 306 (antibody, V domains shown)
VH: QVQLVESGGGVVQPGRSLRLSCAASGFTFSSYGMHWVRQAPGKGLEWVAVIWYDGSNKYYADSVKGRFTISRDNSKNTLYLQMNSLRAEDTAVYYCAKDGGYCGGDCYSDGVDYWGQGTLVTVSS
VL: not shown
median fluorescence intensity, fold over isotype control [1]: 1.39 fold over isotype

B2: antibody 295 (antibody, V domains shown)
VH: QVQLQESGPGLVKPSQTLSLTCTVSGGSISSSDYYWSWIRQPPGKGLEWIGYIYYSGSTYYNPSLKSRVTISVDTSKNQFSLKLSSVTAADTAVYYCARVVGYCSSTSCYVDYWGQGTLVTVSS
VL: EIVLTQSPATLSLSPGERVTLSCRASQSVSSYLAWYQQKPGQAPRLLIYDASNRATGIPARFSGSGSGTDFTLTISSLEPEDFAVYYCQQRSNWPPGLTFGGGTKVEIK
median fluorescence intensity, fold over isotype control [1]: 1.24 fold over isotype

B3: antibody 301 (antibody, V domains shown)
VH: QVQLVQSGAEVKKPGASVKVSCKVSGYTLTELSMHWVRQAPGKGLEWMGGFDPEDGETIYAQKFQGRVTMTEDTSTDTAYMELSSLRSEDTAVYYCATAFCGGDCYPPDALDIWGQGTMVTVSS
VL: DIQMTQSPSSVSASVGDRVTITCRASQGISSWLAWYQQKPGKAPKLLIYAASSLQSGVPSRFSGSGSGTDFTLTISSLQPEDFATYYCQQANSFPLTFGGGTKVEIK
median fluorescence intensity, fold over isotype control [1]: 1.45 fold over isotype

B4: antibody 514 (antibody, V domains shown)
VH: EVQLVQSGAEVKKPGATVKISCKVSGYTFTDYYMHWVQQAPGKGLEWMGLVDPEDGETIYAEKFQGRVTITADTSTDTAYMELSSLRSEDTAVYYCATDCKYDILTGHYSAGYYYYGMDVWGQGTTVTVSS
VL: B3 VL with V11L, S31N, W32Y, Y36F, L46S, R61K, A91Y, F94Y, L96F
bead binding signal, fold over isotype control [2]: 1.15 fold over isotype

B5: antibody 497 (antibody, V domains shown)
VH: QVQLQESGPGLVKPSQTLSLTCTVSGGSINSFGYYWSWIRQHPGKGLEWIGYIYYSGSTDYNPSLNSRVTISLDTSKNQFLLKLTSVTAADTAVYYCAKLTDYYDSSGYSFDYWGQGTLVTVSS
VL: B3 VL with G28D, S31R, S65R, D70E, F71L, Y87F, N92Y, L96F
bead binding signal, fold over isotype control [2]: 1.23 fold over isotype

B6: antibody 290 (antibody, V domains shown)
VH: QVHLVQSGAEVKKPGASVKVSCAASGYTFNNYGVSWVRQAPGQGLEWMGWISASNGNTKYAQNLQGRVTMTTDTSTSTAYMELRSLRSDDTAVYYCARDLVGPTAPNYYYGMDVWGQGTAVTVSS
VL: QSVLTQPPSVSGAPGQRVTISCTGSSSSIGAGYDVHWYQQLPGTAPKLLIYANSNRPSGVPDRLSGSKSGTSASLAITGLQAEDEADYYCQSYDSSLSGYVFGTGTKVTVL
median fluorescence intensity, fold over isotype control [1]: 1.25 fold over isotype

B7: antibody 516 (antibody, V domains shown)
VH: QVELQQWGAGLLKPSETLSLTCAVYGGSFSGYYWSWIRQPPGKGLEWIGEINHSGSTNYNPSLKSRVTISIDTSKNQFSLKLSSVTAADTAVYYCARGTTVTTFFAPHWYFDLWGRGTLVTVSS
VL: QSALTQPASVSGSPGQSITISCTGTSSDVGGYNYVSWYQQHPGKAPKLMIYDVSNRPSGVSNRFSGSKSGNTASLTISGLQAEDEADYYCSSYTSSSTPYVFGTGTKVTVL
bead binding signal, fold over isotype control [2]: 1.03 fold over isotype

B8: antibody 315 (antibody, V domains shown)
VH: QVQLVQSGSELKKPGASVKLSCQASGYSFTNHAMNWVRQAPGQGLEWMGWINTNTGNPTYAQGFTGRFVFSLDTSVSTTYLHISSLKAEDTAVYYCARASARPGVATNLDFWGQGTLVVVSS
VL: DIQMTQSPSSLSASVGDRVTITCRASQNIDNYLNWYQQKPGKAPKLLIYAASRLHSGVPSRFSGSGSGTDFTLIISSLQPEDLATYYCQQSYSNPLTFGPGTKVDIR
median fluorescence intensity, fold over isotype control [1]: 1.07 fold over isotype

B9: antibody 270 (antibody, V domains shown)
VH: QVQLVQSGAEVKRPGTSVKVSCKTSGYTFTDHFIHWVRQAPGRRLEWMGWINPNSGGTNYAQNFQGRVTMTRDTSITTAYMDLTRLTSDDTAIYYCAREAAYGSGNLNWFDPWGQGTRVTVSS
VL: NFMLTQPHSVSESPGKTVTISCTGSSGSIAANYVHWYQQRPGSAPRTVIYEDNQRPSGVPDRFSGSIDSSSNSASLTISGLKTEDEADYYCQSYDGDSWVFGGGTKLTVL
median fluorescence intensity, fold over isotype control [1]: 1.34 fold over isotype

B10: antibody 522 (antibody, V domains shown)
VH: EVQLVESGGGLVQPGGSLRLSCAASGFNFSSYSMNWVRQAPGKGLEWVSYISSSSSTIYYADSVKGRFTISRDNAKNSLYLQMNSLRDEDTAVYYCARGPEWDIVVVQAENWFDPWGQGTLVTVSS
VL: SYELTQPPSVSVSPGQTARITCSGDALPKQYVYWYQQKPGQAPVLVIYKDSERPSGIPERFSGSSSGTTVTLTISGVQAEDEADYYCQSADSSGTYRGVFGGGTKLTVL
bead binding signal, fold over isotype control [2]: 1.21 fold over isotype

B11: antibody 267 (antibody, V domains shown)
VH: EVHLVQSGAEMKKPGATVKISCKVSGNTFIDHYIQWVQQAPGKGFEWMGLVDPEDGETIYAEKFQGRVTITADTSRDTAYMELSSLKSEDTAVYYCGTHGDYLDYWGQGTLVTVSS
VL: FYELTQPSSVSVSPGQTALITCSGDVVAKKYARWFQQKAGQAPVLVIYKDTERPSGIPERISGSSSGTTVTLTISGAQVEDEADYYCYSATDNNLVFGGGTKVTVL
median fluorescence intensity, fold over isotype control [1]: 16.9 fold over isotype

B12: antibody 317 (antibody, V domains shown)
VH: QVQLVQSGAEVKKPGASVKVSCKVSGYTLTELSMHWVRQAPGKGLEWMGGFDPEDGETIYAQKFQGRVTMTEDTSTDTAYMELSSLRSEDTAVYYCASSPAAAGTSQYYYYYGMDVWGQGTTVTVSS
VL: not shown
median fluorescence intensity, fold over isotype control [1]: 1.14 fold over isotype

B13: antibody 498 (antibody, V domains shown)
VH: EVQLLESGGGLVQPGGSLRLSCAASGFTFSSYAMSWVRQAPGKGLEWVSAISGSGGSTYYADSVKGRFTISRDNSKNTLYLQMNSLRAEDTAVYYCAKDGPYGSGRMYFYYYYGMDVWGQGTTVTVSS
VL: QSALTQPASVSGSPGQSITISCTGTSSDVGSYNLVSWYQQHPGKAPKLMIYEGSKRPSGVSNRFSGSKSGNTASLTISGLQAEDEADYYCCSYAGSSTSFVVFGGGTKLTVL
bead binding signal, fold over isotype control [2]: 1.31 fold over isotype

B14: antibody 505 (antibody, V domains shown)
VH: EVQLVESGGGLVKPGGSLRLSCAASGFTFSSYSMNWVRQAPGKGLEWVSSISSSSSYIYYADSVKGRITISRDNAKNSLYLQMNSLRAEDTAVYYCAREYPNFRAEWLLSPYGMDVWGQGTTVTVSS
VL: B13 VL with G53V, F100V, V101K, G105T, L109V
bead binding signal, fold over isotype control [2]: 1.04 fold over isotype

B15: antibody 510 (antibody, V domains shown)
VH: QVQLQESGPGLVKPSQTLSLTCTVSGGSISSGSYYWSWIRQPAGKGLEWIGRIYTSGSTNYNPSLKSRVTISVDTSKNQFSLKLSSVTAADTAVYYCAREGQWLYRFDYWGQGTLVTVSS
VL: QSALTQPASVSGSPGQSITISCTGTSSDVGNYDLVSWYQQHPGKAPKLVIYGVTKRPSGVSNRFSGSKSGNTASLTISGLQAEDEADYYCCSYATGDTSVFGTGTKVTVL
bead binding signal, fold over isotype control [2]: 1.03 fold over isotype

B16: antibody 523 (antibody, V domains shown)
VH: EVQLVESGGVSVQPGGSLRLSCAASGFSFNTYDMHWVRQGTGKGLEWVSGIGTAGDTYYSDSVKGRCTISRDNAKNSLHLLVKSVRAADTAVYYCARGVGGIIDYWGQGTLVTVSS
VL: NFVLSQPHSVSESPGKTVTISCTGNSGSIATKYVQWFQQRPGSAPTTVIYEDNQRPSGVPDRFSGSSDSSSNSASLTISGLKTEDEAHYYCQSYHNRRWVFGGGTKLTVL
bead binding signal, fold over isotype control [2]: 1.11 fold over isotype

B17: antibody 273 (antibody, V domains shown)
VH: QVQLVQSGAEVKKPGASVKVSCKVSGYTLTELSMHWVRQAPGKGLEWMGGFDPEDGETIYAQKFQGRVTMTEDTSTDTAYMELSSLRSEDTAVYYCATAPGYYDSSAPQPINWFDPWGQGTLVTVSS
VL: QSALTQPASVSGSPGQSITISCTGTSSDVGSYNLVSWYQQHPGKAPKLMIYEVSKRPSGVSNRFSGSKSGNTASLTISGLQAEDEADYYCCSYAGSSTLVFGGGTKLTVL
median fluorescence intensity, fold over isotype control [1]: 1.23 fold over isotype

B18: antibody 507 (antibody, V domains shown)
VH: QVQLQESGPGLVKPSGTLSLTCAVSGGSISSSNWWSWVRQPPGKGLEWIGEIYHSGNTNYNPSLKSRVTISVDKSKNQFSLKLSSVTAADTAVYYCARREWLRLFDYWGQGTLVTVSS
VL: B17 VL with L99Y, G103T, L107V
bead binding signal, fold over isotype control [2]: 1.07 fold over isotype

B19: antibody 496 (antibody, V domains shown)
VH: QVQLVQSGAEVKKPGASVKVSCKASGYTFTDYYIHWVRQAPGQGLEWMGWINPNSGGTNYAQKFQGRLTMTRDTSISTAYMELSRLRSDDTAVYYCARVYSMFREFIINPYYYYYGLDVWGQGTTVTVSS
VL: B17 VL with G15R, V53G, T76A, D87N
bead binding signal, fold over isotype control [2]: 1.15 fold over isotype

B20: antibody 294 (antibody, V domains shown)
VH: EVQLVESGGGLVQPGGSLRLSCAASGFTVSSNYMNWVRQAPGKGLEWVSVIYSGGSTYYADSVKGRFTISRDNSKNTLYLQMNSLRAEDTAVYYCARDLGPSGMDVWGQGTTVTVSS
VL: DIQMTQSPSSVSASVGDRVTITCRASQGISSWLAWYQQKPGKAPKLLIYAASSLQSGVPSRFSGSGSGTDFTLTISSLQPEDFATYYCQQANSFPLFGGGTKVEIK
median fluorescence intensity, fold over isotype control [1]: 1.07 fold over isotype

B21: antibody 299 (antibody, V domains shown)
VH: not shown
VL: EIVLTQSPATLSLSPGERATLSCRASQSVSSYLAWYQQKPGQAPRLLIYDASNRATGIPARFSGSGSGTDFTLTISSLEPEDFAVYYCQQRSNWPWTFGQGTKVEIK
median fluorescence intensity, fold over isotype control [1]: 1.13 fold over isotype

B22: antibody 487 (antibody, V domains shown)
VH: QVQLQESGPGLVKPSQTLSLTCTVSGGSISSGGYYWSWIRQHPGKGLEWIGYIYYSGSTYYNPSLKSRVTISVDTSKNQFSLKLSSVTAADTAVYYCARGPLDFWSGYFRLRYFDCWGQGTLVTVSS
VL: QSALTQPASVSGSPGQSITISCTGTSSDVGGYNYVSWYQQHPGKAPKLMIYDVTNRPSGVSNRFSGSKSGNTASLTISGLQAEDEADYYCSSYTSSSTCVFGTGTKVTVL
bead binding signal, fold over isotype control [2]: 7.25 fold over isotype

B23: antibody 288 (antibody, V domains shown)
VH: EVQLVESGGGLVQPGGSLRLSCAASGFTFSSYDMHWVRQATGKGLEWVSAIGTAGDTYYPGSVKGRFTISRENAKNSLYLQMNSLRAGDTAVYYCARGANRDYDILTGYYSYYYYGMDVWGQGTTVTVSS
VL: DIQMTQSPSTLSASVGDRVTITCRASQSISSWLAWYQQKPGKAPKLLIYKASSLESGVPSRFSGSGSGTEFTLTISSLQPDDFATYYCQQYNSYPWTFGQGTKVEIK
median fluorescence intensity, fold over isotype control [1]: 1 fold over isotype
